Assays:
GST-Tvactin [1] = target: T1, GST-Tvactin (T. vaginalis, UniProt A0A8U0WPZ0 1-376); assay: ELISA; solid-phase binding: 2.5 μM F-actin in F-buffer coated on a 96-well microplate; His-TvFACPα or His-△237 at 0-80 μM, 4°C overnight; anti-6×His detection, OD450; Scatchard plots; details: both partners purified
T1 construct: The same construct stands as GST-Tvactin on beads (pull-down), as G-actin (in G-buffer) and as F-actin (polymer, in F-buffer); the assays tell these apart; No removal of GST is described; also called GST fused-α-actin; G-actin; source: polymerized to F-actin in F-buffer), purified on glutathione-conjugated sepharose beads

GST-Tvactin [2] = target: T1, GST-Tvactin; assay: ELISA; solid-phase binding: 2.5 μM G-actin in G-buffer coated on a 96-well microplate; His-TvFACPα or His-△237 at 0-80 μM, 4°C overnight; anti-6×His detection, OD450; Scatchard plots; details: both partners purified
[3] = target: T2, α-actin, endogenous (T. vaginalis) (T. vaginalis (endogenous in TH17 …, UniProt A0A8U0WPZ0 1-376)); assay: co-sedimentation; actin biochemical fractionation of trophozoite lysates (Cytoskeleton Inc kit): 100,000× g for 1 hr, F-actin and associated proteins in the pellet, G-actin in the supernatant; western blotting; non-transgenic and transgenic TH17, flagellate and amoeboid forms, DMSO or TBB treatment; details: partners not purified
T2 construct: α-actin of Trichomonas vaginalis detected by an anti-α-actin antibody as a 42-kDa band; In the cell fractionation it stands as F-actin in the 100,000× g pellet; also called 42-kDa α-actin; F-actin

Binder	Kd (GST-Tvactin [1])	Kd (GST-Tvactin [2])	co-sedimented with F-actin, fold of the endogenous form of the non-transfectant [3]
His-TvFACPα (natural protein, also called His-TvFACPα wild type; Wt; source: recombinant from pET28-His-TvFACPα, purified to homogeneity (protocol of the supplier, QIAGEN)) MSESENIKIIKTFLANAPPGEYEQCTAALRSIVNDEDLINRARSETLKTWAEEECIVVDVEDHKVIICKEACQRDGIYVDPVTSSLITYDFESRIATPIGDQANMSDFAKELQEELTAYAKNAYKENAAAGVYDTNNGIVIVLRGSSISLKNFRTGKTVAKYTLSKSGSLEGKIVSIQHFFEKGNAVCQHDGDCNTTCSFGDAKSVVKAIRTFEDEWLADYKTTLEKIGTNVLFQLRRKFPYSKQKINWQQEITVGGGMKC	8.36 µM	4.45 µM	–
HA-TvFACPα (natural protein, also called HA-TvFACPα wild type; source: T. vaginalis TH17 trophozoites, transgenic (Flp-HA-TvFACPα), in lysate) MSESENIKIIKTFLANAPPGEYEQCTAALRSIVNDEDLINRARSETLKTWAEEECIVVDVEDHKVIICKEACQRDGIYVDPVTSSLITYDFESRIATPIGDQANMSDFAKELQEELTAYAKNAYKENAAAGVYDTNNGIVIVLRGSSISLKNFRTGKTVAKYTLSKSGSLEGKIVSIQHFFEKGNAVCQHDGDCNTTCSFGDAKSVVKAIRTFEDEWLADYKTTLEKIGTNVLFQLRRKFPYSKQKINWQQEITVGGGMKC	–	–	~2 fold

— publication doi:10.1101/2022.06.09.495492, “An atypical F-actin capping protein modulates cytoskeleton behaviors crucial to colonization of Trichomonas vaginalis” (bioRxiv, 2022)
